Legend:
[1] = target: HIV-1JRFL Env (envelope glycoprotein of the HIV-1JRFL pseudovirus) (HIV-1 (strain JRFL)); experiment: cell-based or functional assay
[2] = target: HIV-1NL4-3 Env (envelope glycoprotein of the HIV-1NL4-3 pseudovirus) (HIV-1 (strain NL4-3)); experiment: cell-based or functional assay

Binder | average IC50, inhibition of pseudovirus infection of TZM-bl cells (luciferase) [1] | average IC50, inhibition of pseudovirus infection of TZM-bl cells (luciferase) [2] | IC50, inhibition of pseudovirus infection of TZM-bl cells (luciferase) [1] | fold reduction of antiviral activity as compared to lipopeptide LP-101 [1] | IC50, inhibition of pseudovirus infection of TZM-bl cells (luciferase) [2] | fold reduction of antiviral activity as compared to lipopeptide LP-101 [2]
Ac-YEQKIEELLKKAEEQQKKNEEELKKLEK-NH2 (not fully specified (residue 28)) [lipopeptide LP-98] | 2.58 pM | 1.07 pM |  |  |  | 
Ac-WEEWEKKIEELEKKIEELLKKAEEQQKKNEEELKKLEK-NH2 (not fully specified (residue 38)) [lipopeptide LP-104] |  |  | 60.2 pM | ~27 fold | 14.5 pM | ~32 fold
Ac-EIEELEKKIEELLKKAEEQQKKNEEELKKLEK-NH2 (not fully specified (residue 32)) [lipopeptide LP-101] | 2.26 pM | 0.46 pM |  |  |  | 
